# Data: paper PMC3485151, “A Δ38 Deletion Variant of Human Transketolase as a Model of Transketolase-Like Protein 1 Exhibits No Enzymatic Activity” (PLoS ONE, 2012)
# B1: human full-length transketolase (enzyme, UniProt P29401 1-623, looked up)
# chain: MESYHKPDQQKLQALKDTANRLRISSIQATTAAGSGHPTSCCSAAEIMAVLFFHTMRYKSQDPRNPHNDRFVLSKGHAAPILYAVWAEAGFLAEAELLNLRKISSDLDGHPVPKQAFTDVATGSLGQGLGAACGMAYTGKYFDKASYRVYCLLGDGELSEGSVWEAMAFASIYKLDNLVAILDINRLGQSDPAPLQHQMDIYQKRCEAFGWHAIIVDGHSVEELCKAFGQAKHQPTAIIAKTFKGRGITGVEDKESWHGKPLPKNMAEQIIQEIYSQIQSKKKILATPPQEDAPSVDIANIRMPSLPSYKVGDKIATRKAYGQALAKLGHASDRIIALDGDTKNSTFSEIFKKEHPDRFIECYIAEQNMVSIAVGCATRNRTVPFCSTFAAFFTRAFDQIRMAAISESNINLCGSHCGVSIGEDGPSQMALEDLAMFRSVPTSTVFYPSDGVATEKAVELAANTKGICFIRTSRPENAIIYNNNEDFQVGQAKVVLKSKDDQVTVIGAGVTLHEALAAAELLKKEKINIRVLDPFTIKPLDRKLILDSARATKGRILTVEDHYYEGGIGEAVSSAVVGEPGITVTHLAVNRVPRSGKPAELLKMFGIDRDAIAQAVRGLITKA
# notes: human transketolase (TKT, EC 2.2.1.1), full length, residues 1-623, expressed from a synthetic codon-optimized tkt gene in pET28a; Expressed and purified by the same protocol as TKTΔ38; also called TKT; full-length TKT; source: E. coli BL21*, purified (Ni-NTA, desalting column)
# Target: the molecule itself
# Experiment: SEC; analytical gel filtration, Superdex 200 10/30, 200 µL of 4 mg/mL protein in 50 mM glycyl-glycine pH 7.6, 500 mM NaCl, 6°C; apparent masses estimated from protein standards; semiquantitative
protein,measurement,value
B1,stoichiometry N,2
